Results reported in the DeepSol protein solubility set.

Experiment: soluble on expression in E. coli; label from the status in PepcDB or PDB records

| Sequence | soluble on expression in E. coli |
| --- | --- |
| MGSDKIHHHHHHMVSCGGDGTLNEVVNGIVNTDLAIAVLPMGTGSDFGKTIGIRNISDFLKAIKSGRTREVDLVAAQFANQSRRYFINILEIGFGAEVMNYVNSHKYLGRGSFKFGAFYMLSKMHPFNLRLIMDGKEYEFPTIEAIFANGRYFGGGMLASPYSEIDDGLLDVHVLKPFSRIRSAMNFRTIYDGSYLNRRICA | not soluble |
| MRSSKSPFKRKSHSRETSHDENTSFFHKRTISGSSAHHSRNVSQGAVPSSAPPVSGGNYSHKRNVSRASNSSQTSNFLAEQYERDRKAIINCCFSRPDHKTGEPPNNYITHVRIIEDSKFPSSRPPPDSKLENKKKRLLILSAKPNNAKLIQIHKARENSDGSFQIGRTWQLTELVRVEKDLEISEGFILTMSKKYYWETNSAKERTVFIKSLITLYIQTFEGHVPELVNWDLSLFYLDERSYQRAVITNRPGSVSPIKSPTSNFTTNTTQSVGSVPFSAPTERTRRSETESVNPVSTPASVEYHAGMKSLNKAPYSSNS | soluble |
| MAEEQARHVKNGLECIRALKAEPIGSLAIEEAMAAWSEISDNPGQERATCREEKAGSSGLSKPCLSAIGSTEGGAPRIRGQGPGESDDDAETLGIPPRNLQASSTGLQCHYVYDHSGEAVKGIQDADSIMVQSGLDGDSTLSGGDNESENSDVDIGEPDTEGYAITDRGSAPISMGFRASDVETAEGGEIHELLRLQSRGNNFPKLGKTLNVPPPPDPGRASTSGTPIKKGTDARLASFGTEIASSLTGGATQCARKSPSEPSGPGAPAGNVPECVSNAALIQEWTPESGTTISPRSQNNEEGGDHYDDELFSDVQDIKTALAKIHEDNQKIISKLESLLLLKGEVESIKKQINRQNISISTLEGHLSSIMIAIPGLGKDPNDPTADVEINPDLKPIIGRDSGRALAEVLKKPVASRQLQGMTNGRTSSRGQLLKEFQLKPIGKKMSSAVGFVPDTGPASRSVIRSIIKSSRLEEDRKRYLMTLLDDIKGANDLAKFHQMLVKIIMK | soluble |
| MSLEENMEGALFLENESFCEEIPDNPNIEKEKPLEFISSGNLEIDRKLEGGIPVGSLCLLEGAKDSGKSIFMQQIMWGALNQDKKVLALTTEKTSRNLLNNMESLKQDISDYFIIGRSKIFEINASDVEENPEISENLLEIMLECIKECEEELILIDSLTILAVNASENTLLNFFRECIKLCDKKKTILISVHGYAFSQEVLYRLRSVCNSCLELRIEQVGDKLIKTMEIQKLRGAKKTTGNMLSFDVNSECGLKIIPVSKVKAEGHHHHHH | soluble |
| MGSHHHHHHDITSLYKKAGSAAAVLEENLYFQGSFTMRLKELGEFGLIDLIKKTLESKVIGDDTAPVEYCSKKLLLTTDVLNEGVHFLRSYIPEAVGWKAISVNVSDVIANGGLPKWALISLNLPEDLEVSYVERFYIGVKRACEFYKCEVVGGNISKSEKIGISVFLVGETERFVGRDGARLGDSVFVSGTLGDSRAGLELLLMEKEEYEPFELALIQRHLRPTARIDYVKHIQKYANASMDISDGLVADANHLAQRSGVKIEILSEKLPLSNELKMYCEKYGKNPIEYALFGGEDYQLLFTHPKERWNPFLDMTEIGRVEEGEGVFVDGKKVEPKGWKHF | soluble |
| MGHHHHHHSHDGAEPGRVDTFWYKFLKREPGGELSWEGNGPHHDRCCTYNENNLVDGVYCLPIGHWIEATGHTNEMKHTTDFYFNIAGHQAMHYSRILPNIWLGSCPRQVEHVTIKLKHELGITAVMNFQTEWDIVQNSSGCNRYPEPMTPDTMIKLYREEGLAYIWMPTPDMSTEGRVQMLPQAVCLLHALLEKGHIVYVHCNAGVGRSTAAVCGWLQYVMGWNLRKVQYFLMAKRPAVYIDEEALARAQEDFFQKFGKVRSSVCSL | not soluble |
| MAHHHHHHMGSLVMGRCRRGAEETFEFREEYALLDAPIANAEHIPLRLRPQERKIQRLMRGVILASSYTDKVDSASALKLKNRELLVVKELTNALTGLIVGLDMRKAASFMRDHEFTPYQHEIRAAIEMCRRYKMMNPDLLRTDYVKFLYMIQDAVQSDMAREALGFNVVKELVTVGRYCETHNMQDILQDTRLPHCITPVPVMKDRNMLNRCLRGKDAVVGKLVKQYASEHRMHEDNVEVVVRSLNDANCFSNDNVETSERLLELLKQYFTPISCTELTSLAIDEGADGSRLTHNHKMQYIFVLQSLSLWKNMCRKMYMLWSLAEEDMLNPNEKYELRMTGQGLQRVQKAPQLFKAIQQVLQETKEELGEWVGSERIHLGDDQVPNAFHFIDKYGQVSRIIIPILRTLGHIDQLERHADHAAYLREVWGGGEQAKRAILRDFFRHGFDGSGGDNMDDAGSCIDGRLTSAWNWCNNIRFKEFYPLFLFSGFSSFDGDMGL | soluble |
| GSSHHHHHHSSGLVPRGSHMRGQRGEVEQMKSCLRVLSQPMPPTAGEAEQAADQQEREGALELLADLCENMDNAADFCQLSGMHLLVGRYLEAGAAGLRWRAAQLIGTCSQNVAAIQEQVLGLGALRKLLRLLDRDACDTVRVKALFAISCLVREQEAGLLQFLRLDGFSVLMRAMQQQVQKLKVKSAFLLQNLLVGHPEHKGTLCSMGMVQQLVALVRTEHSPFHEHVLGALCSLVTDFPQGVRECREPELGLEELLRHRCQLLQQHEEYQEELEFCEKLLQTCFSSPADDSMDR | soluble |
| GFRKMAFPSGKVEGCMVQVTCGTTTLNGLWLDDTVYCPRHVICTAEDMLNPNYEDLLIRKSNHSFLVQAGNVQLRVIGHSMQNCLLRLKVDTSNPKTPKYKFVRIQPGQTFSVLACYNGSPSGVYQCAMRPNHTIKGSFLNGSCGSVGFNIDYDCVSFCYMHHMELPTGVHAGTDLEGKFYGPFVDRQTAQAAGTDTTITLNVLAWLYAAVINGDRWFLNRFTTTLNDFNLVAMKYNYEPLTQDHVDILGPLSAQTGIAVLDMCAALKELLQNGMNGRTILGSTILEDEFTPFDVVRQCSGVTHHHHHH | soluble |
| MSWRYSILTVDGSFKIFIPWEIFLTWNFLSAAWLNSTESNTYIHYSTCWGTSDYTLNISVIEATTEKLVDTRLLTTLENATAWINSNSIDEDEDDMPHATNVADRLDGLSLSKRVYSICHYEF | not soluble |
| VGKVFVDAIVKFTKEGDKIPLEIVWDDGRRFEVDRVLDVTKAASLKAGGRGTRYKCRIRGKEIYLFFDDEKWFVETGNK | not soluble |
| MGSDKIHHHHHHMKTNIVDVFCIIDDFSKLFDETIKKKTLEEADKKCRNRKFKMSDSEVMTILILFHLSRYRDLKAFYLQYITHSCRSEFPHLVSYNRFVELQSRGGGKLIAFLNMCCLGQCTGISFIDSTPLKVCHIKRAHGHRTMRGWAQKGKSTMGWFYGFKLHIVINDRGEIINYQITPGNCDDREPLKDGTFTKNLFGKLIADRGYISQNLFDRLFVDDIHMITKIKKNMKNSLMHLYDKVLLRKRALIETVNDILKNLCRIEHTRHRSVNNFVTNLISGIIAYNILPKKPELNIEIIRNPNFPISA | not soluble |
| MGSDKIHHHHHHMMLRASYGTIRKVNGNSSLEMDTAYLMLGERCVYNCLYCAQSRSSTSPSHFLSRVTWKEVSEDLLGKLNDRFKRVCIQVVSYPSYGKDLRLIIPRFRIPVSVSVRAVSIEEVVEYFELGADRVGIAVDVPNKTLFEKIRGGKYERHLHILEKVSEMFPGRITTHVIVGLGESDKDIVDFTVWARERNIVVSLFAFTPIKGTAFENRERPSLERYRKIQLVTYLLEKNLIKPENIIFDSNGKIIDVEWNGEFPEEALRTRGCPHCTRPYYNESPRGPIYNVHWR | not soluble |
| MVKVIASSVRKGNVLDVDGKLYVVLTAQNFHPGKGTPVTQVDMRRIVDGTKVSERWRTTEQVERAFVEDLNFQFLYEDGEGFHFMNPENYDQVVVDVETMGDQKAYLQEGMTCVLSIHEGNPLAVELPRHVTLEIVETEPVVKGQTASSSYKPAILSNGIRTMVPPHIDAGIRVVIATEDNSYVERAKN | not soluble |
| MRIHSPYPASWALAQRIGYLYSEGEIIYLADTPFERLLDIQRQVGQCQTMTSLSQADFEARLEAVFHQNTGESQQIAQDIDQSVDLLSLSEEMPANEDLLNEDSAAPVIRLINAILSEAIKETASDIHIETYEKTMSIRFRIDGVLRTILQPNKKLAALLISRIKVMARLDIAEKRIPQDGRISLRIGRRNIDVRVSTLPSIYGERAVLRLLDKNSLQLSLNNLGMTAADKQDLENLIQLPHGIILVTGPTGSGKSTTLYAILSALNTPGRNILTVEDPVEYELEGIGQTQVNTRVDMSFARGLRAILRQDPDVVMVGEIRDTETAQIAVQASLTGHLVLSTLHTNSASGAVTRLRDMGVESFLLSSSLAGIIAQRLVRRLCPQCRQFTPVSPQQAQMFKYHQLAVTTIGTPVGCPHCHQSGYQGRMAIHEMMVVTPELRAAIHENVDEQALERLVRQQHKALIKNGLQKVISGDTSWDEVMRVASATLESEA | not soluble |
| MGSDKIHHHHHHMTTLNSEKVFRDPILGFIHVDDSIILDLINSHEMQRLRRIKHLGVANSVFHGGEQSRFQHSLGVYEISRRMIQALDDNEKFANERHWDHENDLLVQAAALLHDVGHGAYSHTFEHLFDTVHEQFTQKIIVDPSTEVNAILKTVSNDFPERVAAVIGKSYPDKRVVQLISSQLDADRMDYLLRDAYYTGAEYGRYDIERILRLMRPIKDGFAFDIAGVHSIEDYVISRYQMYLQVYFHPVSRGMEVVLENLLIRAQDIFDKDPDNPIFFPIIRPIFALKNKIDIQDYISLDDSVFNTAFNIWQKVDDKILADLSKRFLDRKPLKSIVLNEKTKDLIPSLRKKIKDRGFDPKYYTGENDATDLPYESYSPKTGEEGIKFVYPDGQQVELSKLSPLVEAINGKESIDRRFFFPREMLSNPEINQLYLKYKKTY | not soluble |
| MFGGIENVKAAEPKVYQFDFGSGSMEPGYIGVRASDRYDRSKGYGFQTPENMRDVAASGAGVKSDAVEFLAYGTKSNNTFNVDLPNGLYEVKVTLGNTARASVAAEGVFQVINMTGDGAEDTFQIPVTDGQLNLLVTEGKAGTAFTLSALKIKKLSDQPVTNRTIYVGGDSTVCNYYPLNSSKQAGWGQMLPHYIDKHTFQVRNMASGGQIARGFRNDGQLEAILKYIKPGDYFMLQLGINDTNPKHKESEAEFKEVMRDMIRQVKAKGADVILSTPQGRATDFTSEGIHSSVNRWYRASILALAEEEKTYLIDLNVLSSAYFTSIGPERTLGLYMDGDTLHPNRAGADALARLAVQELKRQGIAGFLEHHHHHH | soluble |
| MGSDKIHHHHHHMTSPRIISIEGPMGAGKTSLARQLAQSLGGRMILEAPAQNPFLSRFYQGPGAALATELQFFMQRREQWRHRDDSSWLISDHSARKDEIFTPLTLDAEEHHLFNELRMALDFHPAPADLMIFLDAPLAVLMKRIRARGDAYEQALAPDYLARVQAAYRAWQANYALPRMNVDSAQVDFVHDPRHTERLIDAVRHRLKDAEEQDA | not soluble |
| MLYNLAIVIYDLLVHFAAPFSRKPRKMMKGHWVVYELLRQQVEKGEQYIWFHAASLGEFEQGRPLIEMIREKYPDYKILLTFFSPSGYEVRKHYRGADIVCYLPFDKPRNVKKFLDIANPCMAFFIKYEFWKNYLDELHKRRIPVYSVSSIFRRDQIFFKWYGGTYRNVLKDFDHLFVQNEASKRYLSKIGICRVTVVGDTRFDRVLQIREEAKDLPLVKMFKGDNAFTFVAGSSWGPDEDLFLEYFNTHPEMKLIIAPHVIDENHLVEIISKLKRPYVRYTRADEKNVLKVDCLIIDCFGLLSSIYRYGEVAYIGGGFGVGIHNTLEAAVYGIPVIFGPKYQKFMEAIRLLEAKGAYSIKDYHELKTLLDRFQADDVFMRETGANAGYYVTSNAGATEKIMHMINFLEHHHHHH | not soluble |
